The values below come from patent publication US20140234351A1 (IMMUNOCELLULAR THERAPEUTICS, published 2014).

This test addresses T1, HLA-A*0201 molecules on TAP-deficient T2 cells (human).
T1 construct: also called HLA-A2; T2 cells expressing HLA-A2
The test can be described thus: T2 cell binding assay, fluorescence index (MFI peptide - MFI untreated)/MFI untreated.

B1: FOLR1 191-199 HLA-A2 peptide (peptide)
peptide: EIWTHSYKV
notes: Synthetic peptide; also called FOLR1p191; FOLR1 p191
The molecule B1 displayed an MFI index of under 1.

B2: EphA2 883-891 HLA-A2 peptide (peptide)
peptide: TLADFDPRV
notes: Synthetic peptide; also called EphA2p883; EphA2 p883
Molecule B2 registered an MFI index of over 1.5.

B3: IL-13Rα2 345-352 HLA-A2 peptide (peptide)
peptide: WLPFGFILI
notes: Synthetic peptide; also called IL-13Rα2p345; IL-13Rα2 p345
As to B3, the MFI index was over 1.5.

B4: MAGE-A1 278-286 HLA-A2 peptide (peptide)
peptide: KVLEYVIKV
notes: Synthetic peptide; also called MAGEA1p278; MAGE-A1 p278
With B4, the MFI index is over 1.5.

B5: Mesothelin 531-539 HLA-A2 peptide (peptide)
peptide: VLPLTVAEV
notes: Synthetic peptide; also called mesothelinp531; mesothelin p531
Molecule B5 gave an MFI index of over 1.5.
